Results: the supplement of paper PMC12764529
± gives the half width of the 95% confidence interval.

Assays:
[1] = folding stability dG unfold from trypsin proteolysis; higher = more stable
Procedure, shortened: (§1)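 Designed mini-proteins (under 80 residues, no cysteine) in a PA-tagged cDNA display construct were digested with trypsin and chymotrypsin. Each protease was used at 11 concentrations (threefold dilutions) plus a no-protease condition, followed by sequencing. K50 was inferred by Bayesian fitting of sequencing counts, and unfolding free energy was derived against a sequence-predicted unfolded-state K50 and a shared folded-state K50, per protease or combined. Only designs with AlphaFold2 dimer inter-PAE above 15 were kept.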

[2] = folding stability dG unfold from chymotrypsin proteolysis; higher = more stable
Procedure, shortened: as §1

[3] = folding stability dG unfold (combined trypsin and chymotrypsin); higher = more stable
Procedure, shortened: as §1

Sequence | folding stability dG unfold [1] [kcal/mol] | folding stability dG unfold [2] [kcal/mol] | folding stability dG unfold [3] [kcal/mol]
SAGGSAGGSAKPNKKFKFELVEVKEIEIYDKETNEKVYKISVAKVRLEDGSLLTFISIEEKSAGGSAGGSAG [r3_166_TrROS_Hall] | 2.34 ± 0.085 | 3.78 ± 0.059 | 3.19 ± 0.22
SAGGSAGGSAKPPVTLTILVKNPETGEWVRLEVEFLPDGTVKITVTNPNGEKYTFTFKLPPSAGGSAGGSAG [r3_61_TrROS_Hall] | 3.67 ± 0.18 | 5.6 ± 0.16 | 5.6 ± 0.27
SAGGSAGGSAKPRVKIVEVDEEKKRVLVKTEDGEVVELEGLTPEQIEELAKALGADEVELVSAGGSAGGSAG [r3_78_TrROS_Hall] | 0.174 ± 0.07 | 1.53 ± 0.095 | 1.12 ± 0.17
SAGGSAGGSAKPTYRVLVKNEDGEVLEAEVKVVDGKVEVTVNGKVYTFPKGAKIEIVKIEPVSAGGSAGGSA [r18_144_TrROS_Hall] | 3.34 ± 0.2 | 2.92 ± 0.054 | 3.08 ± 0.11
SAGGSAGGSAKTITITVKPEDMTEEELKEKIAEELGIDPEEIEIVKVEKLPNGEVKVTIKIKSAGGSAGGSA [r18_118_TrROS_Hall] | 3.59 ± 0.17 | 1.93 ± 0.11 | 3.08 ± 0.16
SAGGSAGGSAKTVVINIKDLKLSKDGKLTVEEIKKRIKELLKKKGIKKVTVKTVEELLKALKSAGGSAGGSA [r18_72_TrROS_Hall] | 0.898 ± 0.062 | 1.41 ± 0.086 | 1.26 ± 0.074
SAGGSAGGSAKTYEVKITVTNPNGEKKEITLEVEAETEEELLAAIKALAPPGAKVEIEIREVSAGGSAGGSA [r18_60_TrROS_Hall] | 4.33 ± 0.28 | 3.67 ± 0.075 | 4 ± 0.13
SAGGSAGGSAKVKAEIEYDPATGKITIKLITEDERGGKTEEAEITIPIPIPAPPAPPADVDKSAGGSAGGSA [r18_361_TrMRF] | -0.0238 ± 0.12 | 1.69 ± 0.15 | 1.27 ± 0.12
SAGGSAGGSAKVKIVIKNENGEEFEIEMSEEELKKKLKPGDKVKIKIEKVNGKLKITIEKESAGGSAGGSAG [r3_86_TrROS_Hall] | 1.17 ± 0.12 | 2.11 ± 0.16 | 2.02 ± 0.28
SAGGSAGGSAKYILITAPKDNEEKVLEIAEELEKKYGVKLHKVERLPDGTVKALVEIFAPEKSAGGSAGGSA [r18_351_TrMRF] | 0.057 ± 0.073 | 0.674 ± 0.17 | 0.438 ± 0.14
SAGGSAGGSAKYITIFFWGSVEEALKSIPIPPGFKVEIDNIHRNPDGWMWVMITIEIPPNMKSAGGSAGGSA [r18_510_TrROS] | 2.68 ± 0.088 | 4.36 ± 0.12 | 4.28 ± 0.22
SAGGSAGGSALDDFKIEEVQYDPDGNTIRFIFKFPGQVWILRIRMPKNGKMEIEWIPADDISAGGSAGGSAG [r3_167_TrROS] | 3.96 ± 0.21 | 4.36 ± 0.23 | 4.36 ± 0.18
SAGGSAGGSALEIPFEVVDEKDFLLEGDYIVRVAELKNGLRALAIYDPKTGKVLVIVSPGGSAGGSAGGSAG [r3_438_TrMRF] | 1.92 ± 0.15 | 2.07 ± 0.057 | 2.17 ± 0.17
SAGGSAGGSALKPGEPITIIFLFKEPNGRPYIMVIEIEVNPDGGIKIKGMEMITLEDLDKISAGGSAGGSAG [r3_212_TrROS] | 2.97 ± 0.21 | 4.54 ± 0.19 | 4.43 ± 0.25
SAGGSAGGSALPEAEVLEVRFSPDGRRVDAVLRLDGELLVLRIDFPPDGTARIELYPAEDISAGGSAGGSAG [r3_167_TrMRF] | 1.05 ± 0.065 | 2.43 ± 0.068 | 2.07 ± 0.13
SAGGSAGGSAMEILSKEIIPNNDLIIIDIKVKKKNKEYIYKLIIKGDKIIKISEIEIDDAPSAGGSAGGSAG [r3_48_TrMRF] | 1.37 ± 0.13 | 2.5 ± 0.081 | 2.15 ± 0.26
SAGGSAGGSAMIEISSYTLPNGELVVEVTIPDPNSDKTTTLRGKYSSLEEAREEAEKLYLQSAGGSAGGSAG [r3_174_JUSTAS] | 1.52 ± 0.051 | 1.84 ± 0.12 | 1.69 ± 0.12
SAGGSAGGSAMITTYDPKTGLVYELVPDPVPGVGVERLVVRVVTVEEFPDAIVRKVEVRPESAGGSAGGSAG [r3_409_JUSTAS] | -0.211 ± 0.22 | 1.01 ± 0.074 | 0.67 ± 0.14

Sequence | folding stability dG unfold [1] [kcal/mol] | folding stability dG unfold [2] [kcal/mol] | folding stability dG unfold [3] [kcal/mol]
SAGGSAGGSAMIVKEFVTYDPSTGTRTRTTVTLELYDSPEGGAVVVLEEEVDPVGPLPPLESAGGSAGGSAG [r3_397_JUSTAS] | 0.704 ± 0.062 | 0.000665 ± 0.17 | 0.323 ± 0.12
SAGGSAGGSAMKIEIEVDPKTNVIYIRVNGLVYRFTKSEDGYIYIEVYDKNGKLIETFRLKLSAGGSAGGSA [r18_333_TrROS_Hall] | 3.52 ± 0.13 | 4.83 ± 0.1 | 4.4 ± 0.18
SAGGSAGGSAMKILSVTEEVLPNGTRVVRVTVKLPTPKTREIVVSPEVVEAGRLDEVVEELLSAGGSAGGSA [r18_129_JUSTAS] | 1.38 ± 0.033 | 1.82 ± 0.031 | 1.66 ± 0.062
SAGGSAGGSAMKLEVFPVPDGQIAVFEDADGNIRVIGVPEPNLSISDIAKIALDLGADSVELSAGGSAGGSA [r18_83_TrMRF] | 0.451 ± 0.053 | -0.45 ± 0.21 | 0.155 ± 0.16
SAGGSAGGSAMKPVPFEVLSVSYPVLPNGTRIRLVEIKFPETGEVKWIELSPDDPVIKALLSAGGSAGGSAG [r3_57_JUSTAS] | 2.27 ± 0.029 | 1.899 ± 0.011 | 2.06 ± 0.086
SAGGSAGGSAMKTFTKTFSSPEEAERAAEEIKEKLEKEGKKVKITFEKPETDTYIVTITIESAGGSAGGSAG [r3_211_JUSTAS] | 3.44 ± 0.16 | 3.93 ± 0.12 | 3.82 ± 0.19
SAGGSAGGSAMKTLVIEGLSLEEIEELAKEIPGKTVRIVFKDGSVITIYPDGKIEIEPLPESAGGSAGGSAG [r3_269_TrROS_Hall] | 1.75 ± 0.059 | 2.64 ± 0.031 | 2.37 ± 0.054
SAGGSAGGSAMKTSSGTVSFPDSTVKLSYENFGDGSVKKSVVEVVSRPPPPPVPPSNPHYLQSAGGSAGGSA [r18_176_JUSTAS] | 0.667 ± 0.12 | 0.567 ± 0.22 | 0.702 ± 0.39
SAGGSAGGSAMKVPLENVENPKKFPGTGLEIYTFTDKETGKKKIVLVEKPPNKGKKITVIESAGGSAGGSAG [r3_491_JUSTAS] | 0.0339 ± 0.12 | -0.146 ± 0.28 | 0.0523 ± 0.14
SAGGSAGGSAMKVRVKIKITRGSKEYEEEFILPEEEIEKLKEEIPEDYEVEIVDKEPLVLKSAGGSAGGSAG [r3_195_JUSTAS] | 0.129 ± 0.16 | 0.771 ± 0.16 | 0.46 ± 0.27
SAGGSAGGSAMKVSTTPVTLPNGESATLETLPDGTKVLKVGDKYIVVYPSGEVKEVPLEELLSAGGSAGGSA [r18_379_JUSTAS] | 1.43 ± 0.06 | 1.76 ± 0.046 | 1.59 ± 0.12
SAGGSAGGSAMKYYVTITFTDPNNGNTTTEIKEVTTEEEVEKVVEELAPSSYASVKVSIKPKSAGGSAGGSA [r18_258_JUSTAS] | 0.304 ± 0.059 | 1.16 ± 0.28 | 0.892 ± 0.2
SAGGSAGGSAMLVIRVVTEDGEEREIEIPEGEELTLEEILAALRTPDGREVPIERVEIFPASAGGSAGGSAG [r3_465_TrROS_Hall] | 2.04 ± 0.046 | 1.75 ± 0.029 | 1.84 ± 0.11
SAGGSAGGSAMPEPVLIVVEVESLEEAKKLAEELAVEGVKVEVDPESGLVKIEIEKESLLESAGGSAGGSAG [r3_186_TrMRF] | 1.03 ± 0.092 | 1.23 ± 0.08 | 1.12 ± 0.11
SAGGSAGGSAMPGKTYRVRIRLYNEETGELVEERELEVETLDELKEAAEKEGWKIVEIEVESAGGSAGGSAG [r3_423_TrROS_Hall] | 3.14 ± 0.14 | 3.49 ± 0.11 | 3.36 ± 0.19
SAGGSAGGSAMPGQKVRLTDELKKAGLEIEEAEVVEVDGKLYIRVNGKIIEIDADAIEEIEPSAGGSAGGSA [r18_445_TrROS_Hall] | 0.366 ± 0.13 | 1.43 ± 0.037 | 1.11 ± 0.1
SAGGSAGGSAMPKVTIKITVYNAETGELRTVTLTLPEEDMSLEEIAAALPPGWRIVKVELLSAGGSAGGSAG [r3_80_TrROS_Hall] | 3.46 ± 0.077 | 4.65 ± 0.074 | 4.34 ± 0.075
